Experimental findings from patent US20250011379A1 (VERTEX PHARMACEUTICALS, published 2025) are described below.

This test concerns the target soluble human C3b (human, UniProt P01024 23-1663, limits assumed). The test can be described thus: cell-based or functional assay.

Chain of soluble human C3b (P01024 23-1663 limits assumed): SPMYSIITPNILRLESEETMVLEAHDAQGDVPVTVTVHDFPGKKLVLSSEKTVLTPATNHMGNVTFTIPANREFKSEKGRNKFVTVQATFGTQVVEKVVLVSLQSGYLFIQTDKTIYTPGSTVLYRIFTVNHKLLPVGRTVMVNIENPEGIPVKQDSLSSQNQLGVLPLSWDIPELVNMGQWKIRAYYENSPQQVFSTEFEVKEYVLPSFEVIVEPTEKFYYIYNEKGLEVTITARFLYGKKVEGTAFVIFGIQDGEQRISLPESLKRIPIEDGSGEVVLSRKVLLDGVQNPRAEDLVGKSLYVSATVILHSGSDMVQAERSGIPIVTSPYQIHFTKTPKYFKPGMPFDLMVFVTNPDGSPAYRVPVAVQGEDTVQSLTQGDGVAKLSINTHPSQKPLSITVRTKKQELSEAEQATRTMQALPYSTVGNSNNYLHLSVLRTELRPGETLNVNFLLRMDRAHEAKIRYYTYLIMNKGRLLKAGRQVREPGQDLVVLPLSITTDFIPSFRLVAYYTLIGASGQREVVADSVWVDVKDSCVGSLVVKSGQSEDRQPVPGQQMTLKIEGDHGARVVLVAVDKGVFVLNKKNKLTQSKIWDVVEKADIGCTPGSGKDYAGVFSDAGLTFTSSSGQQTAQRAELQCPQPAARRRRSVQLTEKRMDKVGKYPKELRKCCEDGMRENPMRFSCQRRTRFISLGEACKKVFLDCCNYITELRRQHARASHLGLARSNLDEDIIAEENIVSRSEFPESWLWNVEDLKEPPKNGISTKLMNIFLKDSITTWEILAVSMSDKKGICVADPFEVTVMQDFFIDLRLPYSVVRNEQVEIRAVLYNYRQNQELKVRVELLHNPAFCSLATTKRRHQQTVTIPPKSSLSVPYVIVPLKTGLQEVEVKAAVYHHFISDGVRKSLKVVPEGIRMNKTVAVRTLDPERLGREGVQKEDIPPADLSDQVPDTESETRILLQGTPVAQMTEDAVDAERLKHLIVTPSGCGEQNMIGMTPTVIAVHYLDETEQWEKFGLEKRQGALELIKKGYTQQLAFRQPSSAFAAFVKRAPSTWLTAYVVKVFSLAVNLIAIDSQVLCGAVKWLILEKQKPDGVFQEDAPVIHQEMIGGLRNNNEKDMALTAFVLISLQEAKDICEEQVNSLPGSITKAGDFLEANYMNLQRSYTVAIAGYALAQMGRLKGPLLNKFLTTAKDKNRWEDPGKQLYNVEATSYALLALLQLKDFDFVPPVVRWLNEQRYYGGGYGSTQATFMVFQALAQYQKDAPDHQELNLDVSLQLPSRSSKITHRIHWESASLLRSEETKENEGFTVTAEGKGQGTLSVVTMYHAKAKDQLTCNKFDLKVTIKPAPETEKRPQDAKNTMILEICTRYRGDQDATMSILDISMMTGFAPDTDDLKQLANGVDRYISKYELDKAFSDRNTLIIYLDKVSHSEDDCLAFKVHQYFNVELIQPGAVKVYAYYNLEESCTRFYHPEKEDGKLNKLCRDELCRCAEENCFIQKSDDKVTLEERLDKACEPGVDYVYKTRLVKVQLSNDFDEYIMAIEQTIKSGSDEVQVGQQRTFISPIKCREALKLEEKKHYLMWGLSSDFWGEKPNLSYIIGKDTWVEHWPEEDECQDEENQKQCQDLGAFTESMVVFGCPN

B1: Const. No. 94: hCFI-PD (wild type plasma-derived human CFI) (enzyme)
chain: KVTYTSQEDLVEKKCLAKKYTHLSCDKVFCQPWQRCIEGTCVCKLPYQCPKNGTAVCATNRRSFPTYCQQKSLECLHPGTKFLNNGTCTAEGKFSVSLKHGNTDSEGIVEVKLVDQDKTMFICKSSWSMREANVACLDLGFQQGADTQRRFKLSDLSINSTECLHVHCRGLETSLAECTFTKRRTMGYQDFADVVCYTQKADSPMDDFFQCVNGKYISQMKACDGINDCGDQSDELCCKACQGKGFHCKSGVCIPSQYQCNGEVDCITGEDEVGCAGFASVTQEETEILTADMDAERRRIKSLLPKLSCGVKNRMHIRRKRIVGGKRAQLGDLPWQVAIKDASGITCGGIYIGGCWILTAAHCLRASKTHRYQIWTTVVDWIHPDLKRIVIEYVDRIIFHENYNAGTYQNDIALIEMKKDGNKKDCELPRSIPACVPWSPYLFQPNDTCIVSGWGREKDNERVFSLQWGEVKLISNCSKFYGNRFYEKEMECAGTYDGSIDACKGDSGGPLVCMDANNVTYVWGVVSWGENCGKPEFPGVYTKVANYFDWISYHVGRPFISQYNV
For the molecule B1, the “iC3b EC50” value was 50.1 nM.

B2: Const. No. 96: hCFI (wt hCFI, no signal sequence, no HSA) (enzyme)
chain: B1 chain
B2: the “iC3b EC50” value turned out to be 62.4 nM.
